From paper PMC12029569, “Exploring the G-Quadruplex Formation of AS1411 Derivatives”

What was measured:
Conditions in all cases: label: 5'-Cy5; G-quadruplex
NCL RBD2,3 [1] = molecular target: T1, NCL RBD2,3 (UniProt P19338 393-560); assay: fluorescence titration; no measurable interaction; Hill fit not possible; up to 50 nM protein; K100: 100 mM KCl, 10 mM lithium cacodylate pH 7.2; 100 nM Cy5-oligonucleotide pre-annealed, 5 min equilibration per protein addition; temperature not stated
NCL RBD1,2 [2] = molecular target: T2, NCL RBD1,2 (UniProt P19338 307-466); assay: fluorescence titration; Hill n 1.89; K100: 100 mM KCl, 10 mM lithium cacodylate pH 7.2; 100 nM Cy5-oligonucleotide pre-annealed, 5 min equilibration per protein addition; temperature not stated
NCL RBD1,2 [3] = molecular target: T2, NCL RBD1,2; assay: fluorescence titration; Hill n 0.37; main text prints 4.6 nM (conflict with Table S4); K100: 100 mM KCl, 10 mM lithium cacodylate pH 7.2; 100 nM Cy5-oligonucleotide pre-annealed, 5 min equilibration per protein addition; temperature not stated
NCL RBD2,3 [4] = molecular target: T1, NCL RBD2,3; assay: fluorescence titration; Hill n 0.54; K100: 100 mM KCl, 10 mM lithium cacodylate pH 7.2; 100 nM Cy5-oligonucleotide pre-annealed, 5 min equilibration per protein addition; temperature not stated
NCL RBD1,2 [5] = molecular target: T2, NCL RBD1,2; assay: fluorescence titration; Hill n 0.31; SD exceeds Kd; K100: 100 mM KCl, 10 mM lithium cacodylate pH 7.2; 100 nM Cy5-oligonucleotide pre-annealed, 5 min equilibration per protein addition; temperature not stated
NCL RBD2,3 [6] = molecular target: T1, NCL RBD2,3; assay: fluorescence titration; Hill n 2.08; K100: 100 mM KCl, 10 mM lithium cacodylate pH 7.2; 100 nM Cy5-oligonucleotide pre-annealed, 5 min equilibration per protein addition; temperature not stated
NCL RBD1,2 [7] = molecular target: T2, NCL RBD1,2; assay: fluorescence titration; Hill n 0.20; SD exceeds Kd; K100: 100 mM KCl, 10 mM lithium cacodylate pH 7.2; 100 nM Cy5-oligonucleotide pre-annealed, 5 min equilibration per protein addition; temperature not stated
NCL RBD2,3 [8] = molecular target: T1, NCL RBD2,3; assay: fluorescence titration; Hill n 0.49; SD exceeds Kd; K100: 100 mM KCl, 10 mM lithium cacodylate pH 7.2; 100 nM Cy5-oligonucleotide pre-annealed, 5 min equilibration per protein addition; temperature not stated
NCL RBD1,2 [9] = molecular target: T2, NCL RBD1,2; assay: fluorescence titration; Hill n 0.33; K100: 100 mM KCl, 10 mM lithium cacodylate pH 7.2; 100 nM Cy5-oligonucleotide pre-annealed, 5 min equilibration per protein addition; temperature not stated
NCL RBD1,2 [10] = molecular target: T2, NCL RBD1,2; assay: fluorescence titration; Hill n 0.24; K100: 100 mM KCl, 10 mM lithium cacodylate pH 7.2; 100 nM Cy5-oligonucleotide pre-annealed, 5 min equilibration per protein addition; temperature not stated

T2 sequence (P19338 307-466): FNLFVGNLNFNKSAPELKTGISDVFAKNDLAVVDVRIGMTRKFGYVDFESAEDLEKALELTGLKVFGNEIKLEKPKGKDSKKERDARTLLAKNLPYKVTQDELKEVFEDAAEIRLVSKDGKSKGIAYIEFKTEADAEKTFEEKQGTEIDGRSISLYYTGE
T1 sequence (P19338 393-560): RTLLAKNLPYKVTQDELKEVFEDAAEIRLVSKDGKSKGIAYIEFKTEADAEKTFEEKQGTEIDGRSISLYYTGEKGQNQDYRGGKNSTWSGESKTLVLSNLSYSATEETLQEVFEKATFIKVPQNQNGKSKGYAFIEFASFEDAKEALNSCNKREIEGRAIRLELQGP

Binder: TGGTGGTGGTGGTTGGTGGTGGTGGT (structured_DNA) [Cy5-AT14T-T2]
- binding result (NCL RBD2,3 [1]): no binding
- Kd (NCL RBD1,2 [2]): 1.48 ± 0.2 nM

Binder: GGTGGTGGTGGTTTTGGTGGTGGTGG (structured_DNA) [Cy5-AT14]
- Kd (NCL RBD1,2 [3]): 0.46 ± 0.12 nM
- Kd (NCL RBD2,3 [4]): 0.08 ± 0.01 nM

Binder: TGGTGGTGGTGGTTTTGGTGGTGGTGGT (structured_DNA) [Cy5-AT14T]
- binding result (NCL RBD2,3 [1]): no binding
- Kd (NCL RBD1,2 [5]): 8.34 ± 13.2 nM

Binder: GGTGGTGGTGGTTTGGTGGTGGTGG (structured_DNA) [Cy5-AT14-T1]
- Kd (NCL RBD2,3 [6]): 2.16 ± 0.37 nM
- Kd (NCL RBD1,2 [7]): 1.4 nM

Binder: GGTGGTGGTGGTTGGTGGTGGTGG (structured_DNA) [Cy5-AT14-T2]
- Kd (NCL RBD2,3 [8]): 5.37 ± 7.21 nM
- Kd (NCL RBD1,2 [9]): 0.01 ± 0.01 nM

Binder: TGGTGGTGGTGGTTTGGTGGTGGTGGT (structured_DNA) [Cy5-AT14T-T1]
- Kd (NCL RBD1,2 [10]): 3.39 ± 0.58 nM
